Reference: the supplement of paper PMC11780869

Tested on: Bacillus subtilis
Assay: cleaved RNA product abundance (RNA/gDNA barcode ratio) relative to median wild-type variant (ratio to wild type); higher = more accumulation of the downstream cleavage product
Outline: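 Reporter mRNAs (truncated aprE or tetM) carrying barcoded, mutagenized RNase Y cleavage-site windows were made from oligos with a 9% error rate and integrated into the B. subtilis chromosome. Cultures grew in LB at 37°C from OD600 0.0003 to 0.3. Cleaved RNA was gel-selected, reverse transcribed and barcode-sequenced alongside genomic DNA barcodes, with UMI collapsing. Cleaved product abundance is the RNA:gDNA barcode ratio per variant, scaled to the median wild-type variant.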

[1] = experiment (reporter, strain, medium): exp 2b: truncated aprE reporter, strain BJT200, cleavage site: cggR-gapA (positions -7 to +36 mutated)
[2] = experiment (reporter, strain, medium): exp 4a: truncated aprE reporter, strain BJT201 with 2% xylose (RNase J1 expressed), cleavage site: cggR-gapA (positions -7 to +36 mutated)
[3] = experiment (reporter, strain, medium): exp 8a: truncated aprE reporter, strain BJT201 with 2% xylose (RNase J1 expressed), cleavage site: glnRA (positions -5 to +31 mutated)

| Sequence | cleaved RNA product abundance [1] | cleaved RNA product abundance [2] | cleaved RNA product abundance [3] | also measured |
| --- | --- | --- | --- | --- |
| ACAGACGAAGGAGCCGCAAAGAAGTTATTAAGGTATGAATGATCCCTCAATATAAATATCTCTCACTTATTTAAA | 0.0901 | 0.0732 | – | – |
| CGACATGTCCCGCTTCTTTCATTAATCCGTTAGCAACTGTTTTGGTATATATATTTACCTTTTAAGAGGAGGAAT | – | – | 0.224 | – |
| ACAGACGAAGGAGCCGCAAACAAGTTATTCAGGGATGAATAATCCCTCAATATAAATATCTCTCACTTATTTAAA | 0.495 | – | – | – |
| CGACATGTCCCGCTTCTTTCATTAATCCGTTCGCAATTGTTTTGCTATATACATTTACCTTTTAAGAGGAGGAAT | – | – | 0.31 | – |
| ACAGACGAAGGAGCCGCAAATAAGTTATTATGGGATGAATAATCCCTCTATATAAATATCTCTCACTTATTTAAA | – | 0.483 | – | – |
| CGACATGTCCCGCTTCTTTCATTAATCAGTTAGCAACTGTTTTGCTATATAGATTTACCTTTTAAGAGGAGGAAT | – | – | 0.842 | – |
| ACAGACGAAGGAGCCGCAATGAAGATATTAAGGCATGAATAATCCCTCAATATAAATATCTCTCACTTATTTAAA | – | 0.138 | – | – |
| CGACATGTCCCGCTTCTTTCATTATTCCGTTAGCAACTGTATTGCTATATACATTTACCTTTTAAGAGGAGGAAT | – | – | 1.36 | – |
| ACAGACGAAGGAGCCGCAAAGAAGTTATTAAGGGTTGAATAATCCCTTAATATAAATATCTCTCACTTATTTAAA | – | 0.608 | – | – |
| CGACATGTCCCGCTTCTTTCATTAATCCGTTAATAACTGTTTTGCTATATACATTTAACTTTTAAGAGGAGGAAT | – | – | 0.205 | – |
| ACAGACGAAGGAGCCGCAAAGAAGTTATTAGGGTATGAATAATCCCTCAATATAAATATCTCTCACTTATTTAAA | – | 0.361 | – | – |
| ACAGACGAAGGAGCCGCAAAGATGTTATTAAGGGATGAAAAATCCCTCAATATAAATATCTCTCACTTATTTAAA | 0.583 | 0.733 | – | – |
| ACAGACGAAGGAGCCGCAAAGAAGTTATTTAGGGATGAATAATCCCTAAATATAAATATCTCTCACTTATTTAAA | 0.353 | – | – | – |
| CGACATGTCCCGCTTCTTTCATTAATCCGTTAGCAACTGTTTTGCTATCTACATTTACCTTTTAAGAGGAGGAAT | – | – | 0.098 | – |
| ACAGACGAAGGAGCCGCAAAGGAGTTATTAAGGGATGAATAATCCCTGAATATAAATATCTCTCACTTATTTAAA | – | 0.361 | – | – |
| CGACATGTCCCGCTTCTTTCATTAATCAGTTAGCAACTGTTATGCTATATACATTTACCTTTTAAGAGGAGGAAT | – | – | 0.578 | – |
| ACAGACGAAGGAGCCGCAAAGAAGTCATTAAGGGATGAATAATCCGTCAATATAAATATCTCTCACTTATTTAAA | 0.124 | 0.173 | – | – |
| ACAGACGAAGGAGCCGCAAAGTAGTTATTAAGGGATGAATATTCCCTCAATATAAATATCTCTCACTTATTTAAA | 0.716 | – | – | – |
| ACAGACGAAGGAGCCGCAAATAAGTTATTAAGGGATGAATCATCCCTCAATATAAATATCTCTCACTTATTTAAA | 0.769 | 0.899 | – | – |
| CGACATGTCCCGCTTCTTTCATTAATTCGTTAGCAACTGTATTGCAATATACATTTACCTTTTAAGAGGAGGAAT | – | – | 0.329 | – |
| ACAGACGAAGGAGCCGCAAAGACGTTCTTAAGGGATGAATAATCCCTCAATATAAATATCTCTCACTTATTTAAA | – | 0.231 | – | – |
| CGACATGTCCCGCTTCTTTCATTAATCCGTTTGCAAATGTTTTGCTATATACATTTACCTTTTAAGAGGAGGAAT | – | – | 0.446 | – |
| CGACATGTCCCGCTTCTTTCATTAATCCGTTATCAACTTTTTTGCTATATACATTTACCTTTTAAGAGGAGGAAT | – | – | 0.387 | – |
| CGACATGTCCCGCTTCTTTCATTAATCCGTTAGCAACTGTTTTGCTATATCCATTTACCTTTTAAGAGGAGGAAT | – | – | 0.167 | – |

| Sequence | cleaved RNA product abundance [1] | cleaved RNA product abundance [2] | cleaved RNA product abundance [3] | also measured |
| --- | --- | --- | --- | --- |
| ACAGACGAAGGAGCCGCAAAGAAGTTATTAAGGGTTGAATAATCCCTCTATATAAATATCTCTCACTTATTTAAA | 0.157 | 0.151 | – | – |
| CGACATGTCCCGCTTCTTTCATTAATCCGTTATCAACAGTTTTGCTATATACATTTACCTTTTAAGAGGAGGAAT | – | – | 0.296 | – |
| ACAGACGAAGGAGCCGCAAAGAACTTTTTAAGGGATGAATAATCCCTCAATATAAATATCTCTCACTTATTTAAA | 0.204 | – | – | – |
| ACAGACGAAGGAGCCGCAAAGAAGTTATTAAGGGATGAAGAAGCCCTCAATATAAATATCTCTCACTTATTTAAA | – | 0.549 | – | – |
| ACAGACGAAGGAGCCGCAAAGAACTTATTAAGGGATCAATAATCCCTCAATATAAATATCTCTCACTTATTTAAA | 0.282 | 0.27 | – | – |
| ACAGACGAAGGAGCCGCAAAGAAGTTATTAAGTGATGAATAATCCCTCAATATAATTATCTCTCACTTATTTAAA | – | 0.0685 | – | – |
| ACAGACGAAGGAGCCGCAAAGAACTTATTAAGGGATGAATAATCCCTCGATATAAATATCTCTCACTTATTTAAA | – | 0.269 | – | – |
| ACAGACGAAGGAGCCGCAAAGAAGTTATTAAGGGATGAATAAACCCTCAATATAATTATCTCTCACTTATTTAAA | 0.293 | 0.33 | – | – |
| ACAGACGAAGGAGCCGCAAAGAAGTTATTAAGGAATGAATAATCCCTCAATAAAAATATCTCTCACTTATTTAAA | 0.0974 | 0.0766 | – | – |
| CGACATGTCCCGCTTCTTTCATTAATACGTTAGCAACTGTTTTGCTATAAACATTTACCTTTTAAGAGGAGGAAT | – | – | 0.505 | – |
| ACAGACGAAGGAGCCGCAAAGAAGATATTAAGGGATGAATAATCCCTCAATATAAATAACTCTCACTTATTTAAA | – | 1.07 | – | – |
| CGACATGTCCCGCTTCTTTCATTAATCCGTTAGCAACTGTAATGCTATATACATTTACCTTTTAAGAGGAGGAAT | – | – | 1.06 | – |
| ACAGACGAAGGAGCCGCAAAGAAGTTATTCAGGCATGAATAATCCCTCAATATAAATATCTCTCACTTATTTAAA | 0.0983 | – | – | – |
| ACAGACGAAGGAGCCGCAGAGAAGTTTTTAAGGGATGAATAATCCCTCAATATAAATATCTCTCACTTATTTAAA | – | 0.37 | – | – |
| ACAGACGAAGGAGCCGCAAAGAAGTTACTAAGGGATGAATAATCCCTCAATATATATATCTCTCACTTATTTAAA | – | 0.346 | – | – |
| CGACATGTCCCGCTTCTTTCATTAATCCGTTAGCAACTTTTGTGCTATATACATTTACCTTTTAAGAGGAGGAAT | – | – | 1.05 | – |
| CGACATGTCCCGCTTCTTTCATTAATCATTTAGCAACTGTTTTGCTATATACATTTACCTTTTAAGAGGAGGAAT | – | – | 0.249 | – |
| ACAGACGAAGGAGCCGCAAAGAAGTTATTAAGGGATGAATAATCCCTCTATATAAATCTCTCTCACTTATTTAAA | – | 0.529 | – | – |
| ACAGACGAAGGAGCCGCAAAGAAGTTATTAAGGGATGAATAATCCCTCAATATAATTACCTCTCACTTATTTAAA | – | 0.435 | – | – |
| ACAGACGAAGGAGCCGCAAAGAAGTTATTAAGAGATGAATAAACCCTCAATATAAATATCTCTCACTTATTTAAA | 0.148 | 0.0846 | – | cleaved RNA product abundance (experiment (reporter, strain, medium): exp 6: tetM reporter, strain 168, cleavage site: cggR-gapA (positions -7 to +36 mutated)): 0.115 |
| ACAGACGAAGGAGCCGCAAATAAGTTATTAAGGGAAGAATAATCCCTCAATATAAATATCTCTCACTTATTTAAA | 0.497 | 0.366 | – | – |
| ACAGACGAAGGAGCCGCAAAGAAGTTATTAAGGGATGAATAATCCTTCAATATAAATAACTCTCACTTATTTAAA | 0.395 | 0.935 | – | – |
| ACAGACGAAGGAGCCGCAAAGAAGTTTTTAAGGGATGAATAATCCCACAATATAAATATCTCTCACTTATTTAAA | – | 0.251 | – | – |
